According to patent US20080274976A1:
“And” between values parts separate entries of the source, which are not always exact repeats. Equal values may be shown once.

What was measured:
[1] = target: TSha1 K+ channel from trout (trout); experiment: open channel binding, ratio of Table III values
[2] = target: TSha1 K+ channel from trout (trout); experiment: closed channel binding, ratio of Table III values
[3] = target: Shaker-Δ6-46 K+ channel (UniProt P08510); experiment: comparison of open- and closed-state KD, voltage clamp in Xenopus oocytes
Chain of Shaker-Δ6-46 K+ channel (P08510 other isoform, or with tags, fused parts or gaps mutant): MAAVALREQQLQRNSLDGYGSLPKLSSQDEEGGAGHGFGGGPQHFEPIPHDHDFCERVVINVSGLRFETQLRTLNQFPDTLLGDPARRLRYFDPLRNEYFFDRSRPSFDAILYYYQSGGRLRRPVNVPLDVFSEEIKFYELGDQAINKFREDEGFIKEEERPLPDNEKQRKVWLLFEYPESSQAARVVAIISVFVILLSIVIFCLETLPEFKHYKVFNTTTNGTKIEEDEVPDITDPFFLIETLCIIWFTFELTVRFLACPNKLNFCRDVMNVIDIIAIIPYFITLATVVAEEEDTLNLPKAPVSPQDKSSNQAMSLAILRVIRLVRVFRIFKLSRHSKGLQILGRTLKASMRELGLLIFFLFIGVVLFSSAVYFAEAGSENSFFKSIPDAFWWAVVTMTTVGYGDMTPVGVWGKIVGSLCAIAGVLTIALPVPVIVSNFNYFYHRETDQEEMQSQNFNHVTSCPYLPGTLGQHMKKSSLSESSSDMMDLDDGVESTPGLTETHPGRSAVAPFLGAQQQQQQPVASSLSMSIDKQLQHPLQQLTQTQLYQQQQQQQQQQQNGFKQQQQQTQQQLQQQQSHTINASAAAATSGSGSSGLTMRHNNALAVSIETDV

Chain of TSha1 K+ channel from trout (trout) (Q9I830 whole entry): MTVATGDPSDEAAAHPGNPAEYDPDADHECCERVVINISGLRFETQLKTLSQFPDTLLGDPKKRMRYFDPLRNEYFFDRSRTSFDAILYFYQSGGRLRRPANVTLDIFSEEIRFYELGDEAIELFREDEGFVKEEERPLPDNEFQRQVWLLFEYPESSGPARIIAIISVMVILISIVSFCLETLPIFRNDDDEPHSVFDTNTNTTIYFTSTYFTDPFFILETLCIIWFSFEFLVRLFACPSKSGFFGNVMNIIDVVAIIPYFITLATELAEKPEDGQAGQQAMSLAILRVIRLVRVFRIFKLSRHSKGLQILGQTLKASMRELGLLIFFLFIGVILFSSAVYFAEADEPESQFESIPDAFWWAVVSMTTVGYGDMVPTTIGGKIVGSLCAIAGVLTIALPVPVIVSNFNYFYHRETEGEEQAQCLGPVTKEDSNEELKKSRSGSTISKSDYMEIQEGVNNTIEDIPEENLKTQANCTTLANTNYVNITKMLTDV

κM-conotoxin RIIIK (peptide)
fold higher k(O)on than in the Shaker-Δ6-46 channel [1]: 3 fold
fold smaller k(O)off than in the Shaker-Δ6-46 channel [1]: 20 fold
fold higher k(C)on than in the Shaker-Δ6-46 channel [2]: 4 fold
fold lower affinity for the open state (0 mV) than for the closed state [3]: 3 fold and 4 fold
